From publication PMC6498484 come the findings set out here.

This data set has as its target T1, PoxCxrA17-150 (Penicillium oxalicum HP7-1) (UniProt A0A2H4WV05).
T1 sequence: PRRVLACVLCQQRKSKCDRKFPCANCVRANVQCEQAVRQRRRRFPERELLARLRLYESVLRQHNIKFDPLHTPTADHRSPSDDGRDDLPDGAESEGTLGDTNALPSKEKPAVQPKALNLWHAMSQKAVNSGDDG
Put plainly: EMSA. As to conditions: EMSA: 20 mM Tris-HCl pH 8.0, 50 mM KCl, 0.1 mg/mL BSA, 5% glycerol, 1 mM DTT, 1 ug salmon sperm DNA, ~50 ng probe, 30 min at 30 C; footprinting at 30 C.

Turning to “GGTGAGCAGCAAAAGAAGCAGAAGAGCACCGAACGATCAACGATCACGATCTGACGATGTGAAGAAAAAGAGGGTCAACGGGGAGACTAAGAGTGCGACGGCGGATAGTCAAGACGGAAGCGAACCTCCATAAAACACGATGGCCAGGAGGAAGGGAAAAAAAAAATTAAGGAGCCTTATCCACTTTCACGACTCTCCCCTCCCCGCAATTCCAGGGAAGCCGGTCTTGGTTGAATTGTTGGCCAACTGTTTTTCATTTGTTCGTCTCCT (double strand) [PoxClrB-270]”, the binding result is listed as “no binding”.
Under “TTGAGGATCTGATGAAAGGGGGGTGGTGGAGGAGATGAGGAAGGAATGGATGATGAACACCAGAGTCGAGGTGATGGCACCTCTTCTTATATAGTTGCTTCCTTGGGTGGATCCTGAAGCAATTCGCCTCTC (double strand) [PBM_POX05587-3']” stands “binds”.
“GAGAGGCGAATTGCTTCAGGATCCACCCAAGGAAGCAACTATATAAGAAGAGGTGCCATCACCTCGACTCTGGTGTTCATCATCCATTCCTTCCTCATCTCCTCCACCACCCC (double strand) [PBM2 probe]”: the binding entry is “no binding”.
Consider “AGGAGACGAACAAATGAAAAACAGTTGGCCAACAATTCAACCAAGACCGGCTTCCCTGGAATTGCGGGGAGGGGAGAGTCGTGAAAGTGGATAAGGCTCCTTAATTTTTTTTTTCCCTTCCTCCTGGCCATCGTGTTTTATGGAGGTTCGCTTCCGTCTTGACTATCCGCCGTCGCACTCTTAGTCTCCCCGTTGACCCTCTTTTTCTTCACATCGTCAGATCGTGATCGTTGATCGTTCGGTGCTCTTCTGCTTCTTTTGCTGCTCACCTCCTCCTCCCCCCAGCTGAGTCCTT (double strand) [PoxClrB-295]”, for which the binding result is on record as “binds”.
In the case of “CCCCTTTCATCAGATCCTCAAAGAACAAAATTGATCATCATCTCTTTTGATCTTTGATCCAATCCATCACA (double strand) [PBM1 probe]”, the binding result is given as “binds”.
Under “TGGGGGGAGGAGGAGGTGAGCAGCAAAAGAAGCAGAAGAGCACCGAACGATCAACGATCACGATCTGACGATGTGAAGAAAAAGAGGGTCAACGGGGAGACTAAGAGTGCGACGGCGGATAGTCAAGACGGAAGCGAACCTCCATAAAACACGATGGCCAGGAGGAAGGGAAAAAAAAAATTAAGGAGCCTTATCCACTTTCACGACTCTCCCCTCCCCGCAATTCCAGGGAAGCCGGTCTTGGTTGAATTGTTGGCCAACTGTTTTTCATTTGTTCGTCTCCT (double strand) [PoxClrB-284]” stands “no binding”; under “AGGAGACGAACAAATGAAAAACAGTTGGCCAACAATTCAACCAAGACCGGCTTCCCTGGAATTGCGGGGAGGGGAGAGTCGTGAAAGTGGATAAGGCTCCTTAATTTTTTTTTTCCCTTCCTCCTGGCCATCGTGTTTTATGGAGGTTCGCTTCCGTCTTGACTATCCGCCGTCGCACTCTTAGTCTCCCCGTTGACCCTCTTTTTCTTCACATCGTCAGATCGTGATCGTTGATCGTTCGGTGCTCTTCTGCTTCTTTTGCTGCTCACCTCCTCCTCCCCCCAGCTGA (double strand) [PBM_PoxClrB-6']”, “binds”.
Under “GACTCAGCTGGGGGGAGGAGGAGGTGAGCAGCAAAAGAAGCAGAAGAGCACCGAACGATCAACGATCACGATCTGACGATGTGAAGAAAAAGAGGGTCAACGGGGAGACTAAGAGTGCGACGGCGGATAGTCAAGACGGAAGCGAACCTCCATAAAACACGATGGCCAGGAGGAAGGGAAAAAAAAAATTAAGGAGCCTTATCCACTTTCACGACTCTCCCCTCCCCGCAATTCCAGGGAAGCCGGTCTTGGTTGAATTGTTGGCCAACTGTTTTTCATTTGTTCGTCTCCT (double strand) [PBM_PoxClrB-3']” stands “binds”.
Under “TGTGATGGATTGGATCAAAGATCAAAAGAGATGATGATCAATTTTGTTCTTTGAGGA (double strand) [PBM_POX05587-6]” stands “binds”; under “TGTGATGGATTGGATCAAAGATCAAAAGAGATGATGATCAATTTTGTTCTTTGAGGATCT (double strand) [PBM_POX05587-3]”, “binds”.
Regarding “AGGATCTGATGAAAGGGGGGTGGTGGAGGAGATGAGGAAGGAATGGATGATGAACACCAGAGTCGAGGTGATGGCACCTCTTCTTATATAGTTGCTTCCTTGGGTGGATCCTGAAGCAATTCGCCTCTC (double strand) [PBM_POX05587-6']”, the binding result was “binds”.
